Key:
LPN/POPC = experiment: NMR titration binding isotherm with LPN/POPC nanodiscs; settings: POPC, 1D 1H-NMR titration, 10 mM Tris-Ac, pH 7.0
Experimental: (§1) The recombinant 44–243 fragment of the human apolipoprotein A1 with a N-terminal sequence of six His residues was used as an MSP protein. The purified MSP protein, obtained as described in [20], was mixed at a molar ratio of 1 : 75 with lipids in the presence of a detergent, sodium cholate (2 : 1 cholate/lipids molar ratio), and the mixture was incubated at 4 °C for 3 h. When using saturated lipids (DLPC, DLPG), the reaction temperature was kept not lower than 25 °C. Spontaneous LPN assembly was initiated by detergent sorption to the Bio-Beads™ resin (Bio-Rad, USA) for 1.5 h. Purification of the nanodiscs was performed on a Ni^2+ Sepharose 6 Fast Flow resin (GE Healthcare, USA) equilibrated with buffer A (20 mM Tris-HCl, 0.5 M NaCl, 1 mM NaN3, pH 8.0). After loading the reaction mixture, the resin was washed with a fivefold volume of buffer A. LPNs were eluted with buffer A containing 100 mM imidazole. The MSP concentration was determined spectrophotometrically by absorbance at λ = 280 nm. The LPN concentration was determined by assuming that each nanodisc contained two MSP molecules.
(§2) NMR spectra were acquired at 40–45 °C on AVANCE -700 and AVANCE -III-800 spectrometers (Bruker, Germany) equipped with cryogenically cooled triple-resonance probes at the proton resonance frequencies of 700 and 800 MHz, respectively. […]

LPN/POPC/DOPG (3 : 1) = experiment: NMR titration binding isotherm with LPN/POPC/DOPG (3 : 1) nanodiscs; settings: 10 mM Tris-Ac; for binding to LPNs: POPC/DOPG, 3 : 1, 1D 1H-NMR titration, pH 7.0
Experimental: as §1
(§3) NMR spectra were acquired at 40–45 °C on AVANCE -700 and AVANCE -III-800 spectrometers (Bruker, Germany) equipped with cryogenically cooled triple-resonance probes at the proton resonance frequencies of 700 and 800 MHz, respectively.
(§4) To measure the isotherms of the toxins binding to LPNs and MSP molecules, the VSTx1 and NT II samples ([…], 10 mM Tris-Ac, pH 7.0) were titrated with solutions of nanodiscs (70 μM) of various lipid compositions or with a MSP solution (0.7 mM). The 1D 1H-NMR spectrum was acquired at each point. A data analysis was performed assuming that the intensity of the observed NMR signals of a peptide is proportional to its equilibrium concentration in solution ([P]free). The binding curves were fitted either to the partition equilibrium equation (1) or to the Langmuir isotherm equation (2), taking into account the dilution of the initial samples upon titration:
(§5) where [LPN/lipid] is the LPN concentration (assuming that one nanodisc contains two MSP molecules) or the lipid concentration (assuming that one nanodisc contains 150 lipid molecules), [P]boundis the concentration of a peptide bound to LPN ([P]0 = [P]free+ [P]bound), Kpis the partition coefficient, n is the number of binding sites for a peptide on the nanodisc surface, and Knis the affinity constant of the peptide to the binding site on the nanodisc surface.

[1] = test system: MSP (44-243 fragment of human apolipoprotein A1); experiment: NMR titration binding isotherm with MSP; settings: MSP without lipids; 1D 1H-NMR titration, 10 mM Tris-Ac, pH 7.0
Experimental: as §1, §2

LPN/POPC/DOPS (4 : 1) [2] = experiment: NMR titration binding isotherm with LPN/POPC/DOPS (4 : 1) nanodiscs; settings: for binding to LPNs: POPC/DOPS, 4 : 1, 1D 1H-NMR titration, pH 7.0
Experimental: as §1, §3, §4, §5

LPNs = experiment: Gel filtration analysis of LPNs after peptide addition (nanodisc integrity, particle size); format: physicochemical; settings: Superdex-200, 10 mM Tris-HCl, 0.1 M NaCl
Experimental: was carried out on a Superdex-200 resin using a Tricorn 5/200 column (GE Healthcare, Sweden) in buffer (10 mM Tris-HCl, 0.1 M NaCl, 1 mM EDTA, 1 mM NaN3, pH 7.4). Thyroglobulin (669 kDa, Stokes radius RH = 8.5 nm), ferritin (440 kDa, RH = 6.1 nm), catalase (232 kDa, RH = 5.22 nm), aldolase (158 kDa, RH = 4.81 nm) BSA (67 kDa, RH = 3.55 nm), and ovalbumin (43 kDa, RH = 3.05 nm) were used as calibration proteins. The flow rate through the column was 0.3 ml/min. Detection was performed at 280 nm. The particle size was determined from the elution volume vs the lgRH calibration curve. All the particle size (diameter) values provided below correspond to twice RH values. ;

LPN/POPC/DOPS (4 : 1) [3] = experiment: Saturation of POPC choline signal (NOE magnetization transfer) in 2D 1H,15N-TROSY; format: binding; settings: 45 μM 2H,15N-NT II, 75 μM LPN/POPC/DOPS (4 : 1), 10 mM Tris-Ac, pH 7.0
Experimental: (§6) The interaction of NT II with LPN was studied using a sample containing 45 μM ^2H,^15N-NT II, and 75 μM LPN/POPC/DOPS (4 : 1) (10 mM Tris-Ac, pH 7.0). To identify the peptide HN-groups making contacts with the nanodisc surface, the ^1H signal of choline group of the POPC lipid ((CH3)3N^+-, chemical shift is 3.2 ppm) was saturated at a frequency of 125 Hz for 0.1, 0.3, 0.5, 0.8, 1.0, 1.5, and 3.0 s using a relaxation delay of 3 s. […] To identify the peptide HN-groups making contacts with the hydrophobic region of the nanodisc membrane, the paramagnetic probe of 5-doxyl-stearic acid (5-DSA) was used. 5-DSA dissolved in a small amount of methanol was added to the sample containing NT II/LPN complexes to a final concentration of 10, 30, and 75 μM. […] The rates of the cross-correlation process between the dipole-dipole relaxation and relaxation arising from the chemical shift anisotropy of the ^15N nucleus (ηXY) were measured for the complexes of NT II with LPN/POPC/DOPS at 40 °C on an AVANCE -III-800 spectrometer, using amplitude modulated 2D ^1H,^15NTR OSY experiments. The rotational correlation time (τR) for the peptide HN-groups was calculated from the measured ηXY values.

LPN/POPC/DOPS (4 : 1) [4] = experiment: Paramagnetic relaxation enhancement from 5-DSA in 2D 1H,15N-TROSY; format: binding; settings: 5-DSA 10, 30 and 75 μM; 45 μM 2H,15N-NT II, 75 μM LPN/POPC/DOPS (4 : 1), pH 7.0
Experimental: as §6

LPN/POPC/DOPS (4 : 1) [5] = experiment: 15N cross-correlation relaxation rates (ηXY) of NT II in complex with LPN; format: physicochemical
Experimental: as §3, §6

LPN/POPC/DOPS (4 : 1) [6] = experiment: Topology of NT II on nanodisc membrane (combined NOE and PRE data); format: binding; settings: fast exchange on the NMR scale
Experimental: as §6

[7] = test system: muscle-type nicotinic acetylcholine receptor; settings: blocks ligand binding sites with its central loop; ref [36]; cited from earlier work
Excerpt: Neurotoxin II (NT II) is a cationic non-hydrophobic peptide which is stabilized by four disulfide bonds and has the so-called “three-loop” β-structure fold characteristic for snake toxins (Fig. 1). […] It blocks, with its central loop, the ligand binding sites located on the receptor extracellular domain [36]. Unlike VSTx1, NT II has no explicit membrane activity. At the same time, the ^1H,^15N-, and ^31P-NMR spectroscopy investigation of NT II in the environment of DOPC/ DOPS/cholesterol (3 : 1 : 1) ...

B1: neurotoxin II (peptide)
chain: LECHNQQSSQPPTTKTCSGETNCYKKWWSDHRGTIIERGCGCPKVKPGVNLNCCRTDRCNN
modifications: not fully specified; ends and bridges not checked; also: 2H,15N-labeled
With B1 as the molecule, how does the “binding to LPNs” value (LPN/POPC) read?
The value was “lack of detectable binding”.

What about the “binding to LPNs” value (LPN/POPC; listed as NTII) of the same molecule?
Its value is “does not bind”.

What about the “binding to LPNs” value (LPN/POPC/DOPG (3 : 1)) of the same molecule?
The value was “low affinity”.

What about the “binding to LPNs” value (LPN/POPC/DOPG (3 : 1); listed as NTII) of the same molecule?
Its value is “comparatively low affinity”.

What about the “Kp(LPN, MSP×2), partition coefficient” value (LPN/POPC/DOPG (3 : 1); partition equilibrium (eq. 1), LPN concentration as non-aqueous phase, pH 7.0, 40–45 °C, no added salt) of the same molecule?
Its value is 0.32 ± 0.01 ×10^6·M^-1.

And the “Kp(Lipids), partition coefficient” value (LPN/POPC/DOPG (3 : 1); partition equilibrium (eq. 1), lipid concentration as non-aqueous phase (150 lipids per nanodisc), pH 7.0, 40–45 °C, no added salt)?
The value was 2.13 ± 0.07 ×10^3·M^-1.

And the “interaction with MSP” value [1]?
The value was “absence of nonspecific toxin interactions with the MSP protein”.

And the “selectivity for membranes containing different anionic lipids (phosphatidylserine and phosphatidylglycerol)” value (LPN/POPC/DOPS (4 : 1) [2]; LPN/POPC/DOPS (4 : 1) compared with LPN/POPC/DOPG (3 : 1))?
The value was “lack of significant NT II selectivity”.

And the “binding to LPNs” value (LPN/POPC/DOPS (4 : 1) [2]; 10 mM Tris-Ac)?
Its value is “low affinity”.

What about the “binding to LPNs” value (LPN/POPC/DOPS (4 : 1) [2]; 10 mM Tris-Ac, listed as NTII) of the same molecule?
The value was “comparatively low affinity”.

What about the “Kp(LPN, MSP×2), partition coefficient” value (LPN/POPC/DOPS (4 : 1) [2]; partition equilibrium (eq. 1), LPN concentration as non-aqueous phase, 10 mM Tris-Ac, pH 7.0, 40–45 °C, no added salt) of the same molecule?
The value was 0.16 ± 0.01 ×10^6·M^-1.

And the “Kp(Lipids), partition coefficient” value (LPN/POPC/DOPS (4 : 1) [2]; partition equilibrium (eq. 1), lipid concentration as non-aqueous phase (150 lipids per nanodisc), 10 mM Tris-Ac, pH 7.0, 40–45 °C, no added salt)?
The value was 1.07±0.07 ×10^3·M^-1.

What about the nanodisc disruption (LPNs; 1 mM EDTA, pH 7.4, 280 nm) of the same molecule?
Its nanodisc disruption is “no disruption of nanodiscs”.

And the “diameter of unbound toxin” value (LPNs; pH 7.4, diameter = 2 RH)?
Its value is ~ 2.6 nm.

And the “toxin regions with drop of cross-peak intensity on POPC choline saturation” value (LPN/POPC/DOPS (4 : 1) [3])?
The value was 1) in the toxin “head”, near the putative binding site for phosphatidylserine, and 2) in the central (second) loop, at the level of Trp27, Trp28, and Ile35 residues.

What about the “residues with maximum attenuation of HN-signal intensities (PRE)” value (LPN/POPC/DOPS (4 : 1) [4]) of the same molecule?
Its value is “Thr21 residue of the toxin “head” and for residues of the third and second loops”.

And the “ηXY, cross-correlation rates of 15N nuclear relaxation, range” value (LPN/POPC/DOPS (4 : 1) [5]; 2H,15N-NT II in complex with LPN/POPC/DOPS, 800 MHz, 40 °C)?
Its value is 2.5 to 40 Hz.

What about the “diameter of globular particle corresponding to mean τR” value (LPN/POPC/DOPS (4 : 1) [5]; calculated from mean τR) of the same molecule?
Its value is ~ 5.4 nm.

What about the “mass of globular particle corresponding to mean τR” value (LPN/POPC/DOPS (4 : 1) [5]; calculated from mean τR) of the same molecule?
Its value is ~ 34 kDa.

What about the “rotational correlation time τR, range” value (LPN/POPC/DOPS (4 : 1) [5]; calculated from ηXY, NT II in complex with LPN/POPC/DOPS, 40 °C) of the same molecule?
The value was 2 to 31 ns.

What about the “rotational correlation time τR, mean” value (LPN/POPC/DOPS (4 : 1) [5]; calculated from ηXY, mean, NT II in complex with LPN/POPC/DOPS, 40 °C) of the same molecule?
The value was ~ 12.5 ns.

And the “ηXY, cross-correlation rates of 15N nuclear relaxation, mean” value (LPN/POPC/DOPS (4 : 1) [5]; mean value, 2H,15N-NT II in complex with LPN/POPC/DOPS, 800 MHz, 40 °C)?
The value was 16.3 ± 9.2 Hz.

And the “orientations on the nanodisc surface” value (LPN/POPC/DOPS (4 : 1) [6])?
Its value is “several (at least two) orientations”.

What about the “orientations on the nanodisc surface” value (LPN/POPC/DOPS (4 : 1) [6]; listed as NTII) of the same molecule?
The value was “several orientations”.

What about the “inhibition of muscle-type nicotinic acetylcholine receptor” value [7] of the same molecule?
The value was “highly specific inhibitor”.
